Common to all, as to conditions: protein: recombinant; tags: His6
The target in series [1] is T1, TAM-AT1-AT2 Baz2B R765E (Homo sapiens, UniProt Q9UIF8 721-884, R765E).
T1 sequence: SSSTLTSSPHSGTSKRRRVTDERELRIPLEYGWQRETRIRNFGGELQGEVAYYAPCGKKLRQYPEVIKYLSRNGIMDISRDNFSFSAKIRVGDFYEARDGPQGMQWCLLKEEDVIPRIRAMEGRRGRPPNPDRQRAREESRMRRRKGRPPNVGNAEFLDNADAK
Nature of the series: EMSA; EMSA: 20 mM HEPES pH 7.5, 30 mM KCl, 1 mM EDTA, 10 mM (NH4)2SO4, 1 mM DTT, 4 C, 10 nM probe; MST: same plus 0.1 ug/ml BSA, 5 nM probe, 25 C; GST-AT-hook and bromodomain EMSA as in cited refs.

In series [2] the target is T2, TAM-AT1-AT2 Baz2B (Homo sapiens, UniProt Q9UIF8 721-884).
T2 sequence: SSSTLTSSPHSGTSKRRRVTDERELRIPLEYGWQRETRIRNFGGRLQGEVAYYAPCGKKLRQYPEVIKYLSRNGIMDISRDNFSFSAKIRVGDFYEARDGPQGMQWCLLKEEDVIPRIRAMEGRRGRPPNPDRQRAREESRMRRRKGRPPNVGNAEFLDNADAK
Described as above.

Series [3] deals with T3, TAM-AT1-AT2 Baz2B R781E (Homo sapiens, UniProt Q9UIF8 721-884, R781E).
T3 sequence: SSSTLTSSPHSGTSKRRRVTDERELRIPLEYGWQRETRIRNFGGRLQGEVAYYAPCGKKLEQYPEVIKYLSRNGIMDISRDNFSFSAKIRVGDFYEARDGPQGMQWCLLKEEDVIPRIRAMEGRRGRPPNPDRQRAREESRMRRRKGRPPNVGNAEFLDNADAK
The series is described as above.

The target of series [4] is T4, TAM-AT1-AT2 Baz2B R837E (Homo sapiens, UniProt Q9UIF8 721-884, R837E).
T4 sequence: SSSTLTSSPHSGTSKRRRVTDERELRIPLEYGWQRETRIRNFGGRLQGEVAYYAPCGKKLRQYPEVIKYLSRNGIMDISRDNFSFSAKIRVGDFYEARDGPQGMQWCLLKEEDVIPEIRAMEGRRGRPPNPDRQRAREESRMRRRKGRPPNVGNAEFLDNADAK
Described as above.

In series [5] the target is T5, TAM-AT1-AT2 Baz2B R760E (Homo sapiens, UniProt Q9UIF8 721-884, R760E).
T5 sequence: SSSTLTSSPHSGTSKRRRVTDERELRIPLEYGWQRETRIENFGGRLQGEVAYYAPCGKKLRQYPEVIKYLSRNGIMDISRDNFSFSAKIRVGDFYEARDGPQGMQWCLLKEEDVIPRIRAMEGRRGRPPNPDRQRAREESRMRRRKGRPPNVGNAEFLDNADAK
The description is as above.

Series [6] concerns the target T6, TAM-AT1-AT2 Baz2B Q767A (Homo sapiens, UniProt Q9UIF8 721-884, Q767A).
T6 sequence: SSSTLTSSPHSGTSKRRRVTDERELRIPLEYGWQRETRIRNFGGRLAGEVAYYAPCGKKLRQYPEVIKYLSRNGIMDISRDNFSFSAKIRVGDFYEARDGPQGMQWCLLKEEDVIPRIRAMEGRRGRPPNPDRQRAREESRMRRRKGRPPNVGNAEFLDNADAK
Described as above.

Series [7] deals with T7, TAM-AT1-AT2 Baz2B L766A (Homo sapiens, UniProt Q9UIF8 721-884, L766A).
T7 sequence: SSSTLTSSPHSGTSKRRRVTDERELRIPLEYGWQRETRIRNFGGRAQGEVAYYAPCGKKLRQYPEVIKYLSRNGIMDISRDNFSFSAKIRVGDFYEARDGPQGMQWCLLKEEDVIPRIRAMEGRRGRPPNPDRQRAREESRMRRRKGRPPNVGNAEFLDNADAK
The description is as above.

The target in series [8] is T2, TAM-AT1-AT2 Baz2B. Nature of the series: MST; EMSA: 20 mM HEPES pH 7.5, 30 mM KCl, 1 mM EDTA, 10 mM (NH4)2SO4, 1 mM DTT, 4 C, 10 nM probe; MST: same plus 0.1 ug/ml BSA, 5 nM probe, 25 C; GST-AT-hook and bromodomain EMSA as in cited refs. A general note: Mobility shift assays separate free from complexed probe on a gel.
Series [9] addresses T2, TAM-AT1-AT2 Baz2B. The series is described as follows: EMSA; mutant series; EMSA: 20 mM HEPES pH 7.5, 30 mM KCl, 1 mM EDTA, 10 mM (NH4)2SO4, 1 mM DTT, 4 C, 10 nM probe; MST: same plus 0.1 ug/ml BSA, 5 nM probe, 25 C; GST-AT-hook and bromodomain EMSA as in cited refs.

B1: 45 nt ssDNA FLP015 (ssDNA)
DNA: ATCAGTTCTCCGGGTTGTCAGGTCGACCAGTTGTTCCTTTGAGGT
As a reminder, the Kd is the free concentration of one partner at which half of the binding sites on the other are occupied at equilibrium, for simple one-to-one binding. Take B1: the Kd was found to be 93.1 ± 13 nM in series [1]; 122 nM in series [2]; 220 ± 110 nM in series [3]; 248 ± 84.2 nM in [4]; 161 ± 44.7 nM in series [5]; 206 ± 81 nM in series [6]. Also, the figures for the Kd in [7], in [8] and in series [9] were 275 ± 82.9 nM, 160 nM and 228 ± 97.8 nM, respectively.

The values are drawn from paper PMC10783490, “Biochemical and cellular insights into the Baz2B protein, a non-catalytic subunit of the chromatin remodeling complex” (Nucleic Acids Research, 2023).
